Assay results published in patent US6610479.

Columns and labels:
[1] = biological target: streptavidin (on Dynabeads) (UniProt P22629)
[2] = biological target: human serum albumin (HSA) (UniProt P02768)
[3] = biological target: human IgG (on Sepharose, Pharmacia) (human); assay: cell-based or functional assay

UniProt P22629, sequence (P22629 whole entry, looked up): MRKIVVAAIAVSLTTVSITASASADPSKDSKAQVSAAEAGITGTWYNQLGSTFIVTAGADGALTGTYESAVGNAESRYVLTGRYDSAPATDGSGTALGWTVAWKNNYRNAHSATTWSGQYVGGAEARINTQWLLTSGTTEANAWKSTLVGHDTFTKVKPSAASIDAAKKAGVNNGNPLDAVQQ

Substance	hot-start effect in kRAS PCR (primer-dimer formation) [1]	hot start PCR of K-ras (primer-dimer formation) [2]	hot-start effect in kRAS PCR (primer-dimer formation) [2]	primer extension (190 nt product) at 60° C., immobilized enzyme [2]	relative polymerase activity at 45-75° C. and after 95° C. [2]	Peak area of the 190-bp extension product, heat-released enzyme (95° C.-treated Z-ΔTaq-human IgG-Sepharose) [3]	Peak area of the 190-bp extension product, immobilized enzyme (polymerase activity at 50° C.) [3]	increase of the area of the 190-peak, free or heat-released enzyme against enzyme on beads heated only to 50° C. [3] [times]
TagTaq fusion protein (Bio-His6-ABP fused to Taq DNA polymerase I residues 3-832)	All the immobilised enzymes show hot-start effect in PCR with regard to preventing primer-dimer formation	using either a conventional hot start procedure (lane 8) or immobilized TagTaq polymerase (lanes 1 to 3), high yields of essentially pure, full-length PCR products free from primer-dimers are obtained	All the immobilised enzymes show hot-start effect in PCR with regard to preventing primer-dimer formation	TagTaq protein: HSA-Sepharose incubated with the substrate at the same temperature resulted in only very small amounts of the 190 nt extension product	TagTaq indeed is active in the presence of HSA-Sepharose, but only after incubation at a temperature high enough to break the ABP-HSA affinity interaction	–	–	–
Z-ΔTaq fusion protein (from UniProt P0AD92 1-8; P38507 212-269; P19821 236-832) (enzyme)	–	–	–	–	–	8380	594	> 15
